Measurements from patent US20230266303A1, “SYSTEM” (GTINVENT LIMITED, priority 2020, published 2023).
“Also recorded” adds a separate entry of the source.

Legend:
Type in all cases: biochemical
dGAE [1] = biological target: T1, dGAE (Homo sapiens, UniProt P10636); test: Tau aggregation inhibition assay in vitro, Thioflavin S fluorescence; settings: 25 μM (1:1) and 100 μM (4:1) dGAE with s1D12
T1 construct: dGAE, corresponding to amino acid residues 297-391 using numbering from 2N4R tau; made in house
T1 sequence (P10636 614-708): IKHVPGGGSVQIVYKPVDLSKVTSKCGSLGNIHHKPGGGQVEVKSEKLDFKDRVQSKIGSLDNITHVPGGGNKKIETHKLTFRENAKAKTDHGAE
Experimental: (§1) dGAE protein was diluted into 10 mM phosphate buffer, pH 7.4 (PB) with monoclonal antibody s1 D12 at a ratio of 4:1 protein:Ab (100 μM dGAE+25 μM s1D12 and 10 μM dGAE+2.5 μM s1D12) or 1:1 (25 μM dGAE+25 μM s1D12).
(§2) As a positive control, dGAE was prepared at a final concentration of 10, 25 or 100 μM in 10 mM PB. Negative controls consisted of dGAE with a non-tau IgG antibody at a ratio of 4:1 (10 μM dGAE+2.5 μM anti-ovalbumin), or antibody alone (25 or 2.5 μM s1D12 and 2.5 μM anti-ovalbumin). Samples were agitated at 700 rpm at 37° C. for 3 days.
(§3) For CD, 60 μL sample was placed in a 0.1 mm quartz cuvette and placed into a JASCO spectropolarimeter. 100 μL ThS in 20 mM MOPS buffer was added to 50 μL of each sample to a final concentration of 20 μM, mixed well, incubated at room temperature for 10 minutes then fluorescence intensity measured in a Cary Eclipse spectrophotometer using an excitation wavelength of 440 nm. Baseline readings from 10 mM PB were subtracted from CD and ThS measurements.

dGAE [2] = biological target: T1, dGAE; test: Tau aggregation inhibition assay in vitro, circular dichroism; settings: 100 μM dGAE + 25 μM s1D12 (4:1)
Experimental: as §1, §2, §3

dGAE [3] = biological target: T1, dGAE; test: Tau aggregation inhibition assay in vitro, TEM
Experimental: as §1, §2
Transmission electron microscopy (TEM), circular dichroism (CD) and Thioflavin S (ThS) assays were performed as detailed in Al-Hilaly et. al. (2018) J. Mol. Biol. 430, 4119-4131. Briefly, TEM grids were prepared by adding 4 μL of sample to a carbon-coated grid followed by a wash with milli-Q filtered water then staining twice with 2% uranyl acetate. Grids were air dried and then imaged using a JEOL electron microscope operating at 80 kV.

B1: s1D12: monoclonal antibody binding tau epitope within residues 337 to 349 or 341 to 353 of SEQ ID NO: 1 (antibody)
heavy: QVQLQESGPSLVKPSQTLSLTCTVSGFSLNNNAVGWVRQAPGKVPESLVGCSSDGTCYYNSALKSRLDITRDTSKNQISLSLSSVTTDDAAVYYCTRGHYSIYGYDYLGTIDYWGPGLLVTVSSAKTTAPSVYPLAPVCGDTTGSSVTLGCLVKGYFPEPVTLTWNSGSLSSGVHTFPAVLQSDLYTLSSSVTVTSSTWPSQSITCNVAHPASSTKVDKKIEPRGPTIKPCPPCKCPAPNLLGGPSVFIFPPKIKDVLMISLSPIVTCVVVDVSEDDPDVQISWFVNNVEVHTAQTQTHREDYNSTLRVVSALPIQHQDWMSGKEFKCKVNNKDLPAPIERTISKPKGSVRAPQVYVLPPPEEEMTKKQVTLTCMVTDFMPEDIYVEWTNNGKTELNYKNTEPVLDSDGSYFMYSKLRVEKKNWVERNSYSCSVVHEGLHNHHTTKSFSRTPGK
light: QAVLTQPSSVSGSLGQRVSITCSGSSSNVGGGNSVGWYQHLPGSGLKTIIYDTNSRPSGVPDRFSGSRSGNTATLTINSLQAEDEGDYYCVTGDSTTHDDLVGSGTRLTVLGGQPKSSPSVTLFPPSSEELETNKATLVCTITDFYPGVVTVDWKVDGTPVTQGMETTQPSKQSNNKYMASSYLTLTARAWERHSSYSCQVTHEGHTVEKSLSRADCS
dGAE [1]
  ThS emission peak at 483 nm of dGAE in presence of antibody: this signal was abolished
dGAE [1]; listed as s1 D12
  ThS emission peak at 483 nm of dGAE in presence of antibody: abolished
dGAE [2]
  dGAE secondary structure in presence of antibody (CD, antibody spectrum subtracted): dGAE cannot assemble into 3-sheet rich fibrils
dGAE [2]; listed as s1 D12
  dGAE secondary structure in presence of antibody (CD, antibody spectrum subtracted): dGAE has not assembled into fibrils
dGAE [3]; collective finding of TEM, CD and ThS experiments
  overall effect on assembly of dGAE into fibrils: inhibits the assembly of dGAE into fibrils in vitro; also recorded: specifically inhibits the assembly of dGAE into fibrils
dGAE [3]; dGAE:antibody 4:1 or 1:1 (anti-ovalbumin 4:1, 10 μM dGAE), 700 rpm, 37° C., 3 days
  fibril formation of dGAE in presence of antibody (TEM): no fibril formation is observed; also recorded: no fibrils were present
